Test: yeast display, Sf9 membrane polyspecificity reagent, FACS + sequencing; frameworks hold sequencing errors
In short: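 After 36–48 hours of galactose induction, yeast (Saccharomyces cerevisiae BJ5465) displaying a synthetic nanobody library were stained at 4 °C for 1 hour with 10% biotinylated, detergent-solubilized Sf9 membrane reagent. Streptavidin microbeads enriched the stained cells before FACS sorting into low and high (top ~1%) gates on anti-HA and streptavidin fluorescence. Each clone's polyreactivity label reflects its gate of origin.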

Sequence | polyreactivity (PSR sort gate)
QVQLVESGGGLVQAGGSLRLSCAASGLIIYRYAMGWYRQAPGKERELVAAISSTGGRTYYADSVKGRFTISRDNAKNTVYLQMNSLKPEDTAVYYCNADYGWKYVQYYYWGQGTQVTVSS | high polyreactivity
QVQLVESGGGLVQAGGSLRLSRPASGFTYIYSVMGWYRQAPGKERELVAAINGRGDRKYYADSVKGRFTISRDNAKNTGYLQMNSLKPEDTAVYYCNARTHTWGYSAKFDYWGQGTQVTVSS | high polyreactivity
QVQLVESGGGLVQAGGSLRLSCAASGRIFQQYAMGWSRKAPGKERELVAAISRNGGSTYYADSVKGRFTISRDNAKNTVYLQMNRLKTEDTAVYYCNARRNAASTLRKDYGYWGQGTQVSVSS | high polyreactivity
QVQLVESGGGLVQAGGSLRLSCAASGITFNIYVMGWYRQAPGKERELVAAITDSGGTTYYADSVKGRFTISRDNAKNTVYLQMNSLKPEDTAVYYCAAEPFYSWWWWGDYWGQGTQVTVSS | high polyreactivity
QVQLVESGGGLVQAGGSLRLSCAASGSTFYTYTAMGWYRQAPGKERELVAAITWRGGSTYYADSVKGRFTISRDNAKNTVYLHMNRLKPEDTSGYYCAADCVMTWWAYDYWGQGTQVTVSS | high polyreactivity
QVQLVESGGGLVQAGGSLRLSCAASGRTFPKYAMGWYRQAPGKERELVAAITWRASRTYYADSVKGRFTISRDYAKITVYLQMNSLKPEDTAVYYCAAKGVGQAPKRDYWGQGTQVNVSS | high polyreactivity
QVQLVESGGGLVQAGGSLRLSCAASGITIGRYAMGWYRPAPGKERELVAAISSTGGRTYYADSVKGRFTISRDNAKNTVYLQMNSLKPEDTAVYYCAAGRRRPFGRNDYWGQGTQVTVSS | high polyreactivity
QVQLQESGGGLVQAGGSLRLSCAASGTIFWLWAMGRYCQAPGQDRELVASISSGGTTYHADSVKGRFTISRDKAKNPVYRQMNSVKPEDTAVYYRAAFYVATAKLGYWGQGSQVTVSS | low polyreactivity
QVQLVESGGGLVQAGGSLRLSCAASGRTSYVYAMGWYRQAPGKERELVASITGSAGSTYYADSVKGRFTISRDNAKNTVYLQMNSLKPEDTAVYYCAVLRWRSWSSPGYYWGQGTQVTVSS | high polyreactivity
QVQLVESGGALVQAGGSLRLSCAASGYIFAYYAMGWYRQAPGKERELVATISYGGGSTYYADSVKGRFTISRDNAKNTVYLQMNSLKPEDTAVYYCAAVPWASDGYYSWGQGTQVTVSS | low polyreactivity
QVQLVESGGGLVQAGGSLRLSCAASGSTFHGNAMGWYRQAPGKERELVAAISRSGGSTYYADSVKGRFTISRDNAKNTVYLQMNSLKPEDTAVYYCAAETVYKWWYDYYYWGQGTQVTVSS | high polyreactivity
QVQLVESGGGLVQAGGSLRLSCAASGRIFSHYAMAWYRQAPGKERELVAAITSDRSTNYADSVKGRFTISRDNANNTVYLQMNSLKPDDTAVYYCAKYVHIPYYYYLFGSYDYWGQGTQVTVSS | low polyreactivity
QVQLVETGGGLVQAGGSLGLSCAASGRTFGVNAMGWYRQAPGKERELVAAITRGGNTYYADSVKGRFTISRDNAKNTVYLQMNSLKPEDTAVYYCAATGWLRIDRPYTYTYGYWGQGTQVTVSS | high polyreactivity
QVQLVESGGGLVQAGGSLRLSCAASGSTFEYNAMGWYRQAPGKERELVASSTNYADSGKGRFTISRDNAKNTVYLQMNSLKPEDTAVYYCAREQGVNRNHDYWGQGTQVTVSS | low polyreactivity
QVHLVESGGGLVQAGGSLRLSCAASGFIFYSNMGWYRQAPGKESEFVAAITWRGGSTYADSVKRRFTISRDNAKNSVYLQMNILKPEDPAVSYCAGESYRAHTPGHPSCTRFGYWGQGTHVTVSS | high polyreactivity
QVQLVESGGGLVQSGGSLRLTWAASGFTFNRYAMGWYRQAPGKEMELVAAITSRSGITYYADSVKGRFTISRDNAKNTVYLQMNSLKPEDTAVYYCAAYVSRSTEFDYGFWGQGTQVTVSS | high polyreactivity

Sequence | polyreactivity (PSR sort gate)
QVQLVESGGGLVQAGGSLRLSCAASGSIFAIYVMGWYRQAPGKERELVAAITWSGGSTYYADSVKGRFTISRDNAKNTVDLQMNSLKPEDTAVYYCAARVLRVRTVTTTWGQGTQVTLSS | high polyreactivity
QVQLVESGGGLVQAGGSLRLSCAASGSTFGPYAMGWYRQAPGKERELVADITVSDGSTYYADSVKGRFTISRDNAKNTVYLQMNSLKPEDTAVYYCAAEIYYSFGYWGQGTQVTVSS | low polyreactivity
QVQLVESGGGLGQAGGSLRLSCAASGYTFGKYAMGWYRPAPGKERELVAAISWSGGSTYYADSVKGRFTISRDNAKNTVYLQMNSLKPEDTAVYYCNIGYIGRYGYWGQGTQVTVSS | high polyreactivity
QVQLVESGGGLVQAGGSLRLISAASGSTFRHYALGWNRQAPGKERELVAAISSTGGSTYYADSVKGRFTISRDNAKNTVYLQMNSLKPEDTAVFYCAARRLYWGQGTQVTVSS | high polyreactivity
QVQLVESGGGLVQAGGSLRLSCAASGFTFRGYAMGWYRQAPGKERELVASISYRGDSTYYADSVKGRFTISRDNAKNTVYLQMNSLKPADTAGYYCNKLLASYYLPGFDYWGQGTQVTVSS | low polyreactivity
QVQLVESGGGLVQAGGSLRLSCAASVSIFTAYPRGWYRQAPGKERELVAAISNGGSTYYADSVKGRFTISRDNAKNTVYLQMNSLKQEDTAVYYCAADSVQFQPDDEYWGQGTQVTVSS | low polyreactivity
QVQLVESGGGLVQAGGSLRLSCAASGRTFCSYTKAWYRQAPGKERELVAAISSGGSTTYADSVKGRFTISRDNAKNTVYLQLNSLKPEDTAVYYCATRAVWSSWGRRYDPWGQGTQVTVSS | high polyreactivity
QVQLVESGGGLVQAGGSLRLSCSASGSTFYLYAMGWYRQAPGKEREFVADISLSGDSTYYADSVKGRFTISRDNAKNTVYLQMNSLKPEDTAVYYCAADVFYPGPWSYEYWGQGTQVTVSS | low polyreactivity
QVHLVESGGGLVQAGGSLRLSCAASGLIFRRYAMGWYRQAPGKERELVAVISSGGRTYYADSVKGRFTISRDNAKNTVYLQMNSLKPEDTAVYYCAARTRSYWGTYGSYHYDYWGQGTQVTVSS | high polyreactivity
QVQLVESGGGLGQAGGSLRLSCAASGSIFSAYAMGWYRPAPGKERELVAGISKRGGSTYYADSVKGRFTISRDNAKNTVYLQMNSLKAEDTAVYYCTAARYTVVTKLFDYWGQGTQVTVSS | high polyreactivity
QVQLVESAGGLVQAGGSLRLSCAASGSTYTSYAMGWYRQAPGKERELVAAITRNGGTTYYADSVKGRFTLSRDNAKNTVYLQMNSLKPEDTAVYYCNAPHYYYITSDRRFDYWGQGTQVTVSS | low polyreactivity
QVQLVESGGPLVQSGGSLRIICPASGSTFRYYSMGWYRQAPGKERELVAAISYGGGITNYADSVKGRLTISRDNAKNTVYLQMNSLKPEDTAVYYCAAYDRITRYDYWGQGTQVTVSS | high polyreactivity
QVQLVESGGGLVQAGGSLPLSCAASGFISWGNAMGWSRQAPGKARELVAAISWRDARTYYADSVKGRFTISRDNAKNTVYLQMNSLKPEATAVYYCNAVTAYVSRNLGGYRWFDYWGQGTQVTVSA | low polyreactivity
QVRLVESGGGLVQAGGSLRLSCAASGRIFQYYAMGWYRQAPGKERELVASITSGGGSTYYADSVKGRFTISRDNAKNTVYVQMNSLKPEDSAVYYCAVDIYNYSNVHYYYWGQGTQVTVSS | low polyreactivity
QVQLVDSGGGLVQAGGSLRLSCAASGIIFWYYTRGWYRQAPGKERELVASISRGGSTYYADSVKGRFTISRDNAKNTVYLQMNSLKPEDTAVYYCARRPNTGPYGNYDYWGQGTQVTVSS | high polyreactivity
QVQLVESGGGLVQAGGSLRLTCAASGSTFLGYAMGWYRQAPGKERELVAAINLSTSGTYYADSVKGRFTISRDNAKNTVYLQMNSLKPEDTAVYYCAAAYSNINYYYQYYYWGQGTQVTVSS | low polyreactivity

From the nanobody polyreactivity screen of Harvey et al. (2022)
